Source: the supplement of paper PMC9170038

System: MS2 coat protein
Test: apparent KD of MS2 coat protein; designed switch direction (-1 OFF switch, 1 ON switch): 1; higher = weaker reporter binding
How it was run: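 The apparent KD reported per design is the median over clusters of curve fits to normalised cluster fluorescence. The RNA switches were transcribed on Illumina chips by stalled E. coli RNA polymerase. SNAP-549-labelled MS2 coat protein was titrated from 0.7 or 1.5 nM, doubling up to 3 µM, in Tris-HCl pH 7.5 buffer containing KCl, MgCl2, BSA, DTT, tRNA and Tween-20, with no input, 200 uM small-molecule ligand, or an oligonucleotide input.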

[1] = input ligand: microRNA oligo, concentration not stated
[2] = Eterna round: R95, input ligand: FMN 200 uM
[3] = Eterna round: R95, input ligand: microRNA oligo, concentration not stated
[4] = Eterna round: R95, input ligand: none

Row | Sequence | apparent KD of MS2 coat protein (input ligand: FMN 200 uM) | apparent KD of MS2 coat protein [1] | apparent KD of MS2 coat protein (input ligand: none) | apparent KD of MS2 coat protein [2] | apparent KD of MS2 coat protein [3] | apparent KD of MS2 coat protein [4]
1 | CGUAGGUAGCUGGAGGAUAUUCGAGUGGUAACAUGAGGAUCACCCAUGUGGUGAGAGGAACAUGAGGAGAAGGCUAGCUGCCUGC [JL-ss2-3.15 JL mod] (Eterna round: R96, puzzle: Same State 2) | 1290 nM | 925 nM | 906 nM |  |  | 
2 | GUUAAACAUGAGGAUCACCCAUGUCAAUGUAGUCGAGGAUAUGGGUAGCUAUGAGGCGUACUAGAAGGCGAGGAGU [Mat - Same State 1 - Mod of JL - D16] (puzzle: Same State 1) |  |  |  | 194 nM | 57.1 nM | 164 nM
3 | UUAUUCUAUAUAGGAUAUUGAUGUAAUUUAUUUCAAGAAGGAUAUACAUGAGGAUCACCCAUGUUGGAUAGGGUUAGUUUGUUU [JR_SSNG1_Sub080] (Eterna round: R96, puzzle: Same State NG 1) |  | 58.2 nM |  |  |  | 
4 | UUGUGUUUGCGAGGAUAUCGUUUGUUGAAGUUACGAGAAGGCGCUCUCAUUACAUGAGGAUCACCCAUGUCUUUGAUGCAUGAU [JR_SSNG1_Sub071] (Eterna round: R96, puzzle: Same State NG 1) | 54.7 nM | 44.5 nM | 68.2 nM |  |  | 
5 | UGAACCUUCACAGGAUAUCAUGCGAAAAUUGCGUGAGAAGGGUGGAUGUGGUGUUCAUAGUUGCACAUGAGGAUCACCCAUGUA [SameState NG1 #51] (Eterna round: R96, puzzle: Same State NG 1) | 115 nM | 124 nM | 237 nM |  |  | 
6 | UGAAUGGUGAUAGGAUAUACAUGAGGAAUCCUCGUAGAAGGAUCACGACAUGAGGAUCACCCAUGUAGCCGUCCGUAGACGGCU [salish99_SSNG1_r04_003] (Eterna round: R96, puzzle: Same State NG 1) | 192 nM | 75.9 nM | 255 nM |  |  | 
7 | CCAUGGUAACAUGAGGAUCACCCAUGUACAAGCUUUUUGCUCGUCUUACCCGGCGCGCCCAUUAUGGGCGCGCCGGG [Nishu_Seq3] (puzzle: Sensor for hsa-mir-208a version 2) |  |  |  | 41.1 nM | 45.4 nM | 32.5 nM
8 | AACAAUCUAUCUGAGGAUAUCAUGAAAUAAACAUGAGGAUCACCCAUGUGCAGGAAAACUGCAUAUGAGAAGGCAGAUAGAUUGU [salish99_ss2_r3_058] (puzzle: Same State 2) |  |  |  | 57.7 nM | 1020 nM | 1580 nM
9 | UGGCUGGUGCUAGGAUAUGCAUGAGGCCUCCUCGUAGAAGGAGCGCGACAUGAGGAUCACCCAUGUAGCCGUCCGUAGACGGCU [salish99_SSNG1_r04_012] (Eterna round: R96, puzzle: Same State NG 1) | 165 nM | 100 nM | 193 nM |  |  | 
10 | AAAAUGGUAUGUUACAUGAGGAUCACCCAUGUACUCUAAUCUGAGGAUAUGGGAAUGUAGAAGAACCAGAAGGCAGACAUCCAA [AK SSNG3-V2-22.1] (Eterna round: R96, puzzle: Same State NG 3) | 149 nM | 70.2 nM | 86 nM |  |  | 
11 | ACAAGCUUUUUAGGAAGUGAAGGGAGGGAACAUGAGGAUCACCCAUGUAAGUGGAAUGAAGAAGGAGCACGUCUUAU [JR_SHM208A_Sub097] (puzzle: Sensor for hsa-mir-208a) |  |  |  | 32.7 nM | 26.6 nM | 43.1 nM
12 | UAGCUCGUGUGAGGAUAUGCCGCCGUUUCGGCUGCAGAAGGUGCUACGUUACAUGAGGAUCACCCAUGUCUCUGUUGUUUCGUC [salish99_SSNG1_r04_955] (Eterna round: R96, puzzle: Same State NG 1) |  | 23.9 nM |  |  |  | 
13 | AGACAUGAGGAUCACCCAUGUAUACACUGUAUCAGUGUAACAUAGGAUAUCCACCGCCAUGCUGUGGAGAAGGAUGAAACGGGC [Matearen] (Eterna round: R96, puzzle: Same State NG 3) | 175 nM | 111 nM | 99.5 nM |  |  | 
14 | AGAAAACAUGAGGAUCACCCAUGUAGAAAUAUGGGAGGAUAUACAAAGACGAAAGUCAGAGUAGAAGGCCUAAAAA [salish99-SS1-085] (Eterna round: R96, puzzle: Same State 1) |  | 46.6 nM |  |  |  | 
15 | UUUAGAGGCGCAGGAUAUGGUGAGGAUCACCCACUAGAAGGGUGCACAUGAGAAUCGGACAUGAGGAUCACCCAUGUUUGGCGC (Eterna round: R96, puzzle: Same State NG 1) | 806 nM | 554 nM | 816 nM |  |  | 
16 | UUUGGGUGGCUGGAGGAUAUUCGAGUGGUUACAUGAGGAUCACCCAUGUGUCGCGCGGUACACGAGGAGAAGGCUGGCGGCCGUU (puzzle: Same State 2) |  |  |  |  | 37.7 nM | 

Row | Sequence | apparent KD of MS2 coat protein (input ligand: FMN 200 uM) | apparent KD of MS2 coat protein [1] | apparent KD of MS2 coat protein (input ligand: none) | apparent KD of MS2 coat protein [2] | apparent KD of MS2 coat protein [3] | apparent KD of MS2 coat protein [4]
17 | GGCCAGAGUCAAGGAUAUGCUACCGUUUCGGUAGCAGAAGGUGAUCACAUGAGGAUCACCCAUGUAUACGCUGGGAAGCGGGCC [JL SSNG1 3.65] (Eterna round: R96, puzzle: Same State NG 1) | 163 nM | 155 nM | 119 nM |  |  | 
18 | GAGCCAGUCCGAGGAUAUUCAACAUGAGGAUCACCCAUGUAGGCUCAGAAAAGAAAAGAGCCUUGGGAGAAGGCGGACUGGCUC [Xeonanisa<<7] (Eterna round: R96, puzzle: Same State NG 2) | 9.61 nM | 9.01 nM | 14.1 nM |  |  | 
19 | AGUCCAGCCUGAGCUGGACAAAAGCAUGUACAUGAGGAUCACCCAUGUCAUGUACAAGCUUUUUGCUCGUCUUGAUA [Zipper 49 - 8] (puzzle: Sensor for hsa-mir-208a) |  |  |  | 416 nM | 16.7 nM | 435 nM
20 | AGGGAGGAUGCAGGAUAUAUAAGACAUGAGGAUCACCCAUGUACCUCGUGGAGAAGAAAGGAGAGAUAGAAGGGUAGAGAGGAA [Default title] (Eterna round: R96, puzzle: Same State NG 2) | 314 nM | 288 nM | 255 nM |  |  | 
21 | ACAUGAGACAGAGGAUAUGUUGUACCUACAUGUGACAUGAGGAUCACCCAUGUGGUAAGUAUGAUACAGAAGGCUGAGAUAUGU [Equivalance 64 - Jieux - Same State NG 2] (Eterna round: R96, puzzle: Same State NG 2) | 15 nM | 18.3 nM | 24.2 nM |  |  | 
22 | UUGCUUCUCGUAGGAUAUGUAGGAUAUGCCUACAUGAGGAUCACCCAUGUUCGCAUGGCAGAAGGACAGAAGGACGAUCACCCU [pwkr ssNG2 2FMN + 1F5.8] (Eterna round: R96, puzzle: Same State NG 2) | 43.5 nM | 88.1 nM | 472 nM |  |  | 
23 | UGAAUAGUGAUAGGAUAUACAUGAGGAAUCCUCGUAGAAGGAUCAUAACAUGAGGAUCACCCAUGUAGCCGUCCGUAGACGGCA [Mat - Same State NG 1 - JL mod - D56] (Eterna round: R96, puzzle: Same State NG 1) | 336 nM | 64 nM | 117 nM |  |  | 
24 | UAGAGAGGAAGCGAGGAUAUCGUGUUAGGUACAUGAGGAUCACCCAUGUUGUAGGUAGAGGUAGGCGAGAAGGCGCAGGAGAGGG [JR_SS2_Sub093] (puzzle: Same State 2) |  |  |  | 56.3 nM | 47.1 nM | 83.8 nM
25 | AGAUCAUGACGAGGAUAUGGUACAUGAGGAUCACCCAUGUAUGUACCACGACGGAAACGUCGAAUCCAGAAGGCGUCGUGGUCA [Mat - Same State NG 2 - JL mod - D22] (Eterna round: R96, puzzle: Same State NG 2) | 27.7 nM | 115 nM | 167 nM |  |  | 
26 | GUUACAUGAGGAUCACCCAUGUAUGUGUGGGAGUAAGUGUCUUAGGAUAUCUAGUAUUUAAUUAAAGAGAAGGAAGAUUGUUGU [JMF's solution 66] (Eterna round: R96, puzzle: Same State NG 3) | 126 nM | 74.6 nM | 116 nM |  |  | 
27 | GUUACAUGAGGAUCACCCAUGUAUGUGUGGGAGUAAGUGUCUUAGGAUAUCUGUUAUCUAAUUUAAGAGAAGGAAGAUUGUUGU [JMF's solution 35] (Eterna round: R96, puzzle: Same State NG 3) | 162 nM | 53.4 nM | 87.2 nM |  |  | 
28 | UUAAUUUACUGAGGAUAUCGUGUCGACUGAGUUGACAUGAGGAUCACCCAUGUGAGAAGUGGUAUCGAGAAGGCAGUUUUCAUA [JR_SSNG2_Sub024] (Eterna round: R96, puzzle: Same State NG 2) | 17.2 nM | 59 nM | 89.6 nM |  |  | 
29 | GUGGUCAGACAUGAGGAUCACCCAUGUGGAAUAAAUAAGGGUUAGGAUAUCGAAUAUAGGAUAUACGAGAAGGGAUGGUUGGUG (Eterna round: R96, puzzle: Same State NG 3) | 135 nM | 95.3 nM | 109 nM |  |  | 
30 | AUGCCCGUAGCACAGGAUAUCCGAGGCAAAACAUGAGGAUCACCCAUGUCAAACGAAAAUCCGAAGGAGAAGGGUGAACGGGCUC [Xeisquorat] (puzzle: Same State 2) |  |  |  | 12 nM | 11.8 nM | 9.59 nM
31 | AGCUAUUAAUCAGGAUAUGGUCACAUGAGGAUCACCCAUGUAUAGAUGAUAAAAUGUGGUCAAUACUAGAAGGGAUUGCUAACA [SameState NG2 #63] (Eterna round: R96, puzzle: Same State NG 2) | 433 nM | 266 nM | 386 nM |  |  | 
